Assay results from PMC8923076 (Cell chemical biology, 2021).

Biological target: GST-fused GAS41 YEATS domain (residues 1-148) (human, UniProt O95619 1-148)
Assay: fluorescence polarisation

Chain of GST-fused GAS41 YEATS domain (residues 1-148) (O95619 1-148): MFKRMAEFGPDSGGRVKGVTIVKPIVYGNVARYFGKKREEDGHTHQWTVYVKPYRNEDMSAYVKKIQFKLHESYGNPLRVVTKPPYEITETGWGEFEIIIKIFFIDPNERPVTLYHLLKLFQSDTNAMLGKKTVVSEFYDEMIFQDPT

GGKAPRKQLATKAARKSAP (N-terminal acetyl; acetyl-lysine at K18 and K27; C-terminal amide) [H3K18acK27ac peptide]
IC50: 50 µM
